This note sets out measurements from PMC5161705 (Nature, 2016).

The labels stand for the following.
B7: SecB (natural protein)
chain: MSEQNNTEMTFQIQRIYTKDISFEAPNAPHVFQKDWQPEVKLDLDTASSQLADDVYEVVLRVTVTASLGEETAFLCEVQQGGIFSIAGIEGTQMAHCLGAYCPNILFPYARECITSMVSRGTFPQLNLAPVNFDALFMNYLQQQAGEGTEEHQDA

The target of the data set “SecB” is B7. Kind of data set: NMR titration.
Data set [1] has as its target T1, alkaline phosphatase (PhoA) (E. coli, UniProt P00634 1-471 = phosphatase). Kind of data set: ITC.
The data set “NMR structure” deals with the molecule itself. Put plainly: NMR structure.
For data set [2], the target named is T1, alkaline phosphatase (PhoA). Kind of data set: SEC-MALS. On the technique in general: In gel filtration, larger molecules generally elute earlier.
Data set [3] addresses maltose binding protein (MBP), MBP^1–396 (E. coli, UniProt P0AEX9 1-396 = MBP). Kind of data set: SEC-MALS.

B1: MBP^331–396 (domain or fragment)
chain: not shown
B1: the binding result with SecB was “binds”.

B2: MBP^67–99 (domain or fragment)
chain: not shown
Consider B2, for which, in the data set with SecB, the binding result was “binds”.

B3: MBP^260–336 (domain or fragment)
chain: not shown
As for B3, in the data set with SecB, the binding result is on record as “binds”.

B4: MBP^97–164 (domain or fragment)
chain: not shown
Turning to B4, the binding result in the data set with SecB is recorded as “binds”.

B5: MBP^160–201 (domain or fragment)
chain: not shown
Take B5: the binding result in the data set with SecB is on record as “binds”.

B6: triple mutant SecB (SecB™), V40A/L42A/L44A (natural protein)
chain: MSEQNNTEMTFQIQRIYTKDISFEAPNAPHVFQKDWQPEAKADADTASSQLADDVYEVVLRVTVTASLGEETAFLCEVQQGGIFSIAGIEGTQMAHCLGAYCPNILFPYARECITSMVSRGTFPQLNLAPVNFDALFMNYLQQQAGEGTEEHQ
As for B6, in data set [1], the “fold reduction in affinity against wild type SecB” value stood at 40 fold.
Consider B7, for which the binding result in “NMR structure” is recorded as “binds”. For the same molecule, the figures for the “stoichiometry N” value in data set [2] and in data set [3] were 1 SecB:PhoA and 1 SecB:MBP, respectively.

B8: MBP^198–265 (domain or fragment)
chain: not shown
As for B8, the binding result in the data set with SecB was “binds”.

B9: MBP^29–99 (domain or fragment)
chain: not shown
As for B9, in the data set with SecB, the binding result was “binds”.
